In PMC2643122 (Molecular Microbiology, 2008):

Biological target: the molecule itself
Assay: SEC

B1: recombinant full-length Candida albicans Ssa2 protein (natural protein)
chain: not shown
Question: Does B1 bind?
Answer: binds
